According to patent publication US12514920B1, “Respiratory syncytial virus mRNA vaccine, and preparation method therefor and use thereof” (Hangzhou Tianlong Pharmaceutical Co., Ltd., priority 2024, dated 2026):
Where a chain is given by its changes, count along the chain named.

B1: YK-RSV-052 (protein)
chain: QNITEEFYQSTCSAVSKGYLGALRTGWYTSVITIELSNIKENKCNGTDAKVKLIKQELDKYKNAVTDLQLLMQSTPATGSGCAIASGVAVSKVLHLEGEVNKIKSALLSTNKAVVSLSNGVSVLTFKVLDLKNYIDKQLLPILNKQSCSIPNIETVIEFQQKNNRLLEITREFSVNAGVTTPVSTYMLTNSELLSLINDMPITNDQKKLMSNNVQIVRQQSYSIMSIIKEEVLAYVVQLPCYGVIDTPCWKLHTSPLCTTNTKEGSNICLTRTDRGWYCDNAGSVSFFPQAETCKVQSNRVFCDTMNSRTLPSEVNLCNVDIFNPKYDCKIMTSKTDVSSSVITSLGAIVSCYGKTKCTASNKNRGIIKTFSNGCDYVSNKGVDTVSVGNTLYYVNKQEGQSLYVKGEPIINFYDPLVFPSDEFDASISQVNEKINQSLAFIRKSDELLHNVNAGKSTTNIMITTIIIVIIVILLSLIAVGLLLY
B2: YK-RSV-059 (protein)
chain: B1 chain with C82S, C241L, N261C, G407C
B3: YK-RSV-002 (protein)
chain: B1 chain with T29H, C82S, A85C, S91C, L143V, S226C, C241L, Y394C, D422S
B4: YK-RSV-058 (protein)
chain: B1 chain with C82S, C241L, S266C, G407C

Test system: RSV pre-F antibody (3C12)
Test: Binding of epitope Φ of RSV F antigen mutants by flow cytometry
Conditions: flow cytometry; epitope Φ, antibody 3C12
Method in brief: (§1)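 293T cells were transfected with mRNA-LNP (300 ng mRNA) encoding the RSV F mutants and harvested after 16 h. Cells were stained with fluorescent 3C12 (pre-F-specific epitope Φ) or 11A9 (epitope II, pre-F and post-F) for 2 h at 4 °C in the dark, then washed and read by flow cytometry on 1×10^4 cells per measurement.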

Molecule | RSV pre-F antibody (3C12) Epitope Φ (%) binding rate
B1 | 89.4%
B2 | 83.1%
B3 | 88.0%
B4 | 81.2%

Same assay, conditions: ratio of epitope Φ (3C12) to epitope II (11A9) binding rate

Molecule | Φ/II (%)
B1 | 95.4%
B2 | 92.5%
B3 | 94.1%
B4 | 91.5%

Test system: RSV F antibody (11A9)
Test: Binding of epitope II of RSV F antigen mutants by flow cytometry
Conditions: epitope II, antibody 11A9
Method in brief: as §1

Molecule | RSV F antibody (11A9) Epitope II (%) binding rate
B1 | 93.7%
B2 | 89.8%
B3 | 93.5%
B4 | 88.7%

Test system: RSV pre-F antibody (3C12)
Test: not given
Type: physicochemical
Conditions: high osmotic pressure 3000 mM, room temperature, 60 min; ELISA binding to 3C12
Method in brief: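 RSV F mRNA-vaccine mutants stress-treated: 4° C. for one week, 50° C. for 60 min, low or high osmotic pressure at room temperature for 60 min, acid or base at room temperature for 60 min. Binding to 3C12 (epitope Φ) then measured by ELISA against pre-F trimer standard, HRP anti-human IgG, OD 450/630 nm.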

Molecule | Stress resistance parameter, Osmotic pressure (mM) 3000
B1 | 0.30 ± 0.06
B2 | 0.44 ± 0.03
B3 | 0.44 ± 0.13
B4 | 0.50 ± 0.05

Same assay, conditions: incubation at 50° C. for 60 min; ELISA binding to 3C12

Molecule | Stress resistance parameter, Temperature (° C.) 50
B1 | 0.69 ± 0.09
B2 | 0.74 ± 0.07
B3 | 0.46 ± 0.06
B4 | 0.73 ± 0.09

Same assay, conditions: low osmotic pressure 10 mM, room temperature, 60 min; ELISA binding to 3C12

Molecule | Stress resistance parameter, Osmotic pressure (mM) 10
B1 | 0.88 ± 0.21
B2 | 0.49 ± 0.02
B3 | 0.84 ± 0.14
B4 | 0.60 ± 0.04

Same assay, conditions: pH 3.5, room temperature, 60 min; ELISA binding to 3C12

Molecule | Stress resistance parameter, pH 3.5
B1 | 0.80 ± 0.04
B2 | 0.73 ± 0.03
B3 | 0.65 ± 0.08
B4 | 0.72 ± 0.03

Same assay, conditions: pH 10, room temperature, 60 min; ELISA binding to 3C12

Molecule | Stress resistance parameter, pH 10
B1 | 1.22 ± 0.14
B2 | 0.82 ± 0.09
B3 | 0.97 ± 0.14
B4 | 0.81 ± 0.05

Same assay, conditions: storage at 4° C. for one week; ELISA binding to 3C12

Molecule | Stress resistance parameter, Temperature (° C.) 4
B1 | 0.42 ± 0.10
B2 | 0.52 ± 0.10
B3 | 0.61 ± 0.11
B4 | 0.36 ± 0.07
